Test results as given in US7037502B2, “Peptide with the amino acid sequence of KVLDGQDP having anti-inflammatory properties” (priority 2001, dated 2006).

Biological target: T1, TGase (Guinea pig liver, EC 2.3.2.13) (UniProt P08587)
T1 construct: 0.001 U TGase (Guinea pig liver, EC 2.3.2.13, Sigma); purchased Sigma; host or cells: guinea pig liver
T1 sequence (P08587 1-690): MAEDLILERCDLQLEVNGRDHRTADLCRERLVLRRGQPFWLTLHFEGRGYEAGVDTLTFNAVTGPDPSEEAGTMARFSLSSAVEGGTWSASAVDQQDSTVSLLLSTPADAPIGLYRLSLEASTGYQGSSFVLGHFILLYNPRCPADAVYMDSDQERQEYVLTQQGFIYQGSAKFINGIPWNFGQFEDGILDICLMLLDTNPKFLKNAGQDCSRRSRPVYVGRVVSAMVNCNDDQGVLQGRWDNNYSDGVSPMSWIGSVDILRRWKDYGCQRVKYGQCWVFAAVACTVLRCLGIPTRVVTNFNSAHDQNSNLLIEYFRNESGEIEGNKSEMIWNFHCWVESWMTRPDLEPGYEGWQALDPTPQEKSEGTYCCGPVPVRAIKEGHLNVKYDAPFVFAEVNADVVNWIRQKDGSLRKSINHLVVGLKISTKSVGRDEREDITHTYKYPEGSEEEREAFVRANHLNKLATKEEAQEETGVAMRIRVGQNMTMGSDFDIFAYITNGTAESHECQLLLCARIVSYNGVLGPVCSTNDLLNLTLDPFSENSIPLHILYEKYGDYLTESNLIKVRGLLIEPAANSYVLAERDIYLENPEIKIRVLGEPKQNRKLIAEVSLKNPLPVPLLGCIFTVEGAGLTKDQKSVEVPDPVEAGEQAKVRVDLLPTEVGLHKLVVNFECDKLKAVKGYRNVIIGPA
Assay: Inhibitory effect of synthetic peptides on TGase in vitro ([14C]-putrescine incorporation into succinylated casein)
Format: biochemical
Settings: peptides 1×10^−8 M, preincubated 15 min at 37° C.; compared with the peptides known as PLA2 inhibitors
Source text: It is needed to inhibit the activity of TGase in order to secure maximum anti-inflammatory activity since the TGase activates PLA2. A established TGase assay method was used to determine the enzymatic activity by measuring the incorporation of [1,4]^14C-putrescine into succinylated casein (Folk J E., et al., Transglutaminase. Methods in Enzymol 1985; 113; 358–375).
To determine the inhibitory activity, 0.001 U TGase (Guinea pig liver, EC 2.3.2.13, Sigma; 1.0 unit will catalyze the formation of […] of hydroxamate per min. from N- -CBZ-Gln-Gly and hydroxylamine at pH 6.0 at 37° C.) was preincubated for 15 minutes with the synthetic peptides in 0.1 ml (1×10^−8 M) at 37° C. before adding the TGase/peptide mixture to the substrate solution (0.5 ml) containing 0.1 M Tris-acetate pH 7.5, 1% succinylated casein, 1 mM EDTA, 10 mM CaCl2, 0.5% lubrol PX, 5 mM DTT, 0.15M NaCl and 0.5 mCi ^14C-putrescine [Dupont-New England Nuclear, Wilmington, […] (118 Ci/mole)]. […] The TCA-insoluble precipitates were collected onto GF/A glass fiber filters, washed with cold 5% TCA, dried and counted. […]
For inhibitory test of the peptides given, each value is the mean of data from three separate experiments (S.D.<10%). The value of TGase activity incubated without peptides was determined as 100% TGase activity that is 4.89 pmole putrescine/hr. % Inhibition was shown in FIG. 2.

## KVLDGQDP [Peptide R2, synthetic peptide of the invention]
  TGase activity (FIG. 2), result in words: significantly reduced

## KVLDPVKG [Peptide R1, synthetic peptide of the invention]
  TGase activity (FIG. 2), result in words: significantly reduced
